# Test results reported in the RNAGym collection of RNA variant scans (doi:10.7554/elife.90254).
# B1: OR4K15 (parent)
# chain: GUUAACGGUCAUAGGCCAUGGAAACUAGGAGCACCAUUUCGCUGCCAGUGAAGAAAUGAACAAAGAAAAUCUGGGCCAGGCAGGCAUCAAAAGAAAUAGUCUUGCGCUCAACCAGAAAGUCUGUAAUCAUUUUAAGGGUA
# Variants of: B1
# Experiment: self-cleavage, relative activity (ratio to wild type); higher = more cleavage; in vitro, sequencing; the parent is a self-cleaving ribozyme
row,Variant,self-cleavage
1,G7A A62U,1.38
2,A13U A51G,1.53
3,A4G A135G,1.18
4,A90U A134G,1.26
5,A22G G75C,0.37
6,A63G U72C,0.27
7,U3C A30U,1.37
8,A90U U100C,2.02
9,A24C A66G,1.16
10,A64U U103C,0.87
11,A18G A126U,0.44
12,G138A A140U,1.08
13,A27G A96G,1.1
14,U49C A135C,0.89
15,U3C A96G,1.3
16,A33C A118C,0.99
17,C32U U103C,0.91
18,A30U A90G,1.31
19,A66G U122G,2.19
20,A95G U133C,1.23
21,A51G U133C,1.46
22,A60U U87A,1.61
23,U57A U102G,0.16
24,U9C A27U,1.02

row,Variant,self-cleavage
1,A111G A118U,0
2,A18G U38G,1.56
3,A62G A64G,0.94
4,A90U A92G,1.38
5,A111U A126G,0.06
6,C107A A111G,0.02
7,U57C C105G,0.01
8,A51G A54G,0.81
9,A13G A23G,1.3
10,A23G A54U,1.5
11,A114G U120C,0.18
12,A22G U133C,0.65
13,A68C U127G,2.01
14,U87C U127A,2.12
15,A89U A111G,0.03
16,U72C U87A,0.4
17,A18C A47G,0.59
18,U26C U43A,1.29
19,U39C A78G,0.26
20,U19A U38C,1.98
21,A94U A118G,1.51
22,U19A A67G,1.84
23,A51G A62U,1.49
24,U43A A60U,1.88

row,Variant,self-cleavage
1,A33G A135G,0.69
2,A60G A110G,0.13
3,A67G C77A,0.71
4,A24G U122A,1.19
5,A54G U57C,0.65
6,U38C A126U,1.12
7,A91U A111U,0.23
8,A5C A59U,1.73
9,U102C C107U,0.01
10,A22U U37C,0.85
11,G74U U97C,0.22
12,A64G G137A,0.96
13,U70A U139C,1.06
14,A11G A129U,0.45
15,A11G G29A,0.57
16,G20A U38G,1.25
17,U70C A94G,0.77
18,G58U A89U,1.46
19,C34U U43A,0.99
20,A64C G75C,0.21
21,C10U A22U,1.21
22,A22U A47G,1.13
23,A94C U100C,2.31
24,A66G A110G,0.15

row,Variant,self-cleavage
1,U3C A63U,1.02
2,U57A A95G,2.11
3,A33C U87A,1.18
4,U19C A117G,1.58
5,G74A A82U,0.32
6,A69U A78G,0.32
7,A52U A125G,0.79
8,C6U A67G,1.39
9,A78U U122C,0.14
10,C42U A96G,2.35
11,A82G A114U,0.03
12,U57C U70A,0.68
13,A66G A98U,1.08
14,A96G U132C,1.21
15,U49C U108C,0.01
16,C32U A96G,0.99
17,A5G U37C,1.29
18,C10A A30G,0.63
19,U37A A118G,1.4
20,A24C U127C,1.03
21,U72C U102C,0.36
22,A22U A118G,1.13
23,U43A U49A,0.87
24,A94U A126G,1.84

row,Variant,self-cleavage
1,A18U A47G,1.05
2,U37C G48A,1.59
3,A94U U100C,2.56
4,G58A A62G,1.01
5,A91U U132C,1.62
6,A111G A134G,0.01
7,A33U A69G,1.71
8,U37C U57C,1.18
9,G115A C121A,0.33
10,U12A U37C,1.96
11,A22G A129C,1.08
12,A116G U130C,0.25
13,A27G,1.1
14,C88G A129G,2.37
15,G15A A24G,1.4
16,U43A A116G,0.55
17,A52G C128U,1.26
18,A63G A89U,1.13
19,U122A U130C,0.8
20,U3C A117G,1.69
21,A59G A111C,0.03
22,G41A G106A,0.01
23,A60G U139C,0.47
24,A89G A114G,0.36

row,Variant,self-cleavage
1,U102A U103A,0.12
2,U70C A82G,0.31
3,U19A U120C,0.79
4,C42U U130C,1.09
5,U49C C85G,1.62
6,A98G U139C,0.5
7,A18G A55G,1.07
8,U131C U139A,1.84
9,A33G G74U,0.19
10,U49C A78C,0.43
11,A135C,0.69
12,A63C G79A,0.09
13,A5G A140G,0.77
14,A24C U49C,1.53
15,U19C U122A,0.65
16,A78G A95G,0.26
17,A27G U57C,0.49
18,C71U A114G,0.05
19,U70C A110U,0.92
20,G31C,1.79
21,U3C G75A,0.11
22,G29U A33G,1.58
23,U37A A91G,0.78
24,A11G A63G,1.1

row,Variant,self-cleavage
1,A27G A117G,1.15
2,U70A C121U,2.35
3,A92G U103G,0.03
4,A95U A134G,1.48
5,A59G A69C,0.6
6,A11G A36U,1.12
7,A66U A90G,1.22
8,U37C A60C,1.44
9,G1A G137A,0.95
10,U19C C88A,2.03
11,A55G A60U,1.62
12,A86G A117U,1.45
13,A78U A94U,0.4
14,U39A A89U,2.25
15,A4G C42U,0.81
16,A82G A118U,0.44
17,A47G A111U,0.12
18,A22G U39G,1.41
19,U102C U131C,2.13
20,U57C U72A,0.18
21,A22G A47G,1.34
22,G104A U132C,0.04
23,U9C A125G,0.66
